Consider 1 substance from patent US20070190056A1.

This test has as its target recombinant myostatin. The test is described as follows: cell-based or functional assay.

In the case of “myostatin antagonist 350 (amino acids 267-350 of bovine myostatin) (from UniProt O18836 267-350) (peptide)”, the macrophage migration towards ZAMS medium (chemotaxis assay, FIG. 9) is 20 fold.
